The target in test [1] is T1, Pep-3, NH2-LEEKKGNYVVTDHG-OH (human).
T1 construct: Free peptide used in Biacore and KinExA (MW 1590 Da)
T1 peptide: H-LEEKKGNYVVTDHG-OH
Put plainly: Biacore 2000 SPR, mAb immobilised, pep-3 analyte; 95% confidence interval in parentheses. The source says: (§1) Two CM5 sensor chips were used in total to immobilize both mAbs. […] Biacore 2000 optical biosensors were used for all studies.
(§2) Next, pep-3 was flowed across the mAb immobilized biosensor surfaces. […] Blank injections were run every sixth sample throughout the injection series for double referencing purposes.
A general note: Surface plasmon resonance follows binding to a sensor surface in real time, without labels.

Test [2] addresses T2, wild type EGFR expressed by cells (NR6 Wt, A431, A549, H80, SF-539, A498, SKRC-52) (human, UniProt P00533 25-1210).
T2 construct: Also used here for Western blots of cell lysates; also called wtEGFR; Wt receptor
Put plainly: FACS on H80 glioblastoma cells (wild type EGFR only), 30 min on ice, PE goat anti-human IgG; filled histogram = irrelevant IgG. Here is the method: The specificity of the purified antibodies was ascertained by performing FACS analysis on a panel of cell lines. H80, a human glioblastoma line, and H1477 (H80-EGFRvIII) that expresses high levels of EGFRvIII, A431, a human epidemoid carcinoma line, and A549, a human lung carcinoma cell line were used as the cell lines. All cell lines were from Dr. Bigner except A431 and A549, which were from ATCC (Rockville, Md., U.S.A.). Cells were incubated on ice with 10 μg/ml of the respective antibody for 30 min., washed in FACS buffer and subsequently incubated with PE-conjugated goat anti-human IgG from Jackson ImmunoResearch (West Grove, Pa., U.S.A.).

For test [3], the target named is T3, EGFRvIII, full length, expressed by transfected cells (NR6 M, H1477, 300.19/EGFRvIII) (human, UniProt P00533 298-1210). Nature of the test: cell-based or functional assay.
The target in test [4] is T3, EGFRvIII, full length, expressed by …. Nature of the test: FACS on NR6 M cells, antibody at 0.25 µg/ml with SS Alexa anti-human IgG Fab, 37° C. for 1 hr, no glutathione (total cell-associated fluorescence). Here is the method: XenoMax derived IgG1 recombinant antibodies were expressed, purified and quantitated as described previously. Antibodies were further assayed for their ability to internalize the EGFRvIII receptor in NR6 M cells. […] The cells were washed with cold 10% FCS in PBS and secondary antibody (SS Alexa antihuman IgG Fab) at 3 μg/ml Fab was added and incubated for 7 mins on ice. The cells were washed with cold 10% FCS in PBS once and then resuspended in cold media. Next, two sets of the triplicate were incubated at 37° C. and the remaining set was incubated at 4° C. for 1 hr. After that the cells incubated at 4° C. and one set of the cells incubated at 37° C. were treated with glutathione (as previously mentioned) for 1 hr on ice. Then the cells were washed and resuspended in 100 μl of cold 1% FCS in PBS and analyzed by FACS. The % internalization was calculated from the geometric mean obtained from the FACS analysis [(mean at 37° C. with glutathione—mean at 4° C. with glutathione)/(mean at 37° C. without glutathione—mean at 4 C with glutathione)].

The target of test [5] is T1, Pep-3, NH2-LEEKKGNYVVTDHG-OH. Nature of the test: KinExA, pep3; KinExA (solution equilibrium), pep3; not Biacore. (In general: A kinetic exclusion assay measures how much of one partner remains free in solution.)
For test [6] the target is unchanged. Put plainly: Biacore 2000 SPR, mAb immobilised, pep-3 analyte; 95% confidence interval in parentheses.
Description: as §1, §2

Test [7] has the same target. Put plainly: Biacore SPR, mAb immobilised, Pep-3 analyte (single experiment of Example 25).
Test [8] concerns the target EGFrVIII antigen (ELISA antigen of Examples 15, 17 and 21; form not stated) (human, UniProt P00533 298-645, limits assumed). Nature of the test: ELISA, 293 cell supernatant on EGFrVIII antigen. Here is the method: Each mutated chain was then transfected with the complementary wild-type chain in 293 cells. Supernatants were then tested for expression and secretion of human IgG antibodies, and for binding to EGFrVIII antigen.

The target in test [9] is T1, Pep-3, NH2-LEEKKGNYVVTDHG-OH. Put plainly: Biacore 2000 SPR, mAb immobilised, pep-3 analyte (range between runs).
Description: as §1, §2

Test [10] addresses T4, EGFRvIII peptide-OVA (PEP3 14-mer conjugated to ovalbumin) (human, also: conjugated to OVA, chemistry not given here).
T4 construct: also called VIII-pep-OVA; muEGFr
T4 peptide: LEEKKGNYVVTDHC
Put plainly: XenoMax screening.

The target in test [11] is T1, Pep-3, NH2-LEEKKGNYVVTDHG-OH. Nature of the test: Biacore 2000 SPR, mAb immobilised, pep-3 analyte, 23 C. Here is the method: Standard EDC/NHS and carbohydrate coupling was used to covalently immobilize mAbs to a CM5 sensor chip. To minimize mass transport and crowding mAbs were immobilized at levels that gave a maximum antigen binding response (Rₘₐₓ) of no more than 50-100 RU. A reference flow cell on each chip was activated and blocked with no mAb immobilization to serve as a control.
All Biacore kinetic experiments were conducted at 23° C. […] Antigen samples were randomly injected over the biosensor surface in triplicate at 100 μL/min. Several buffer blanks were injected intermittently over the course of an experiment for double referencing. Each pep-3 concentration and blank were injected for 90 seconds. Dissociation was followed for 13 to 180 minutes.
All Biacore sensorgrams were processed using Scrubber software (Version 1.1f, BioLogic Software, Australia). Sensorgrams were first zeroed on the y-axis and then x-aligned at the beginning of the injection. Bulk refractive index changes were removed by subtracting the reference flow cell responses. The average response of all blank injections was subtracted from all analyte and blank sensorgrams to remove systematic artifacts between the experimental and reference flow cells. CLAMP biosensor data analysis software (Version 3.40, BioLogic Software, Australia) was used to determine kₐ and kd from the processed data sets. Data from all flow cells were globally fit to a 1:1 bimolecular binding model that included a mass transport term. […] The KD was calculated from the quotient kd/kₐ.

Test [12] has the same target. Put plainly: KinExA, pep3. Here is the method: All KinExA experiments were conducted at room temperature (˜23° C.). For all equilibrium experiments, antigen was serially diluted into solutions having a constant mAb binding site concentration. For the first 10 titration points the dilutions were 2-fold and the 11th and 12th serial dilutions were 10-fold. The sample flow rate for all experiments was 0.25 mL/min and the labeling antibody flow rate was 0.5 mL/min. […] A sample volume of 250 μL was analyzed for the antibody-controlled experiment. Two or three replicates of each sample were measured for all equilibrium experiments. The equilibrium titration data were fit in a dual curve analysis to a 1:1 binding model using KinExA software (Version 2.4, Sapidyne Instruments).

The target of test [13] is T2, wild type EGFR expressed by cells (NR6 …). Nature of the test: FACS, 10 ug/ml antibody, H80, A431 and A549 cells.
For test [14], the target named is T5, EGFRvIII-rabbit Fc fusion protein (human; rabbit, UniProt P00533 298-645).
T5 construct: made in 293F cells; also called EGFRvIII-RbFc; EGFRvIII-Rab Ig Fc fusion protein; not shown: rabbit IgG Hinge-CH2-CH3 (721 bp fragment)
Put plainly: ELISA, minilipofection supernatant titrated 1:2 on EGFRvIII-Rab Ig Fc fusion protein (1.5 ug/ml). Here is the method: The secretion ELISA tests were performed as follows. […] The plates were washed five times with dH₂O. Recombinant antibodies were titrated 1:2 for 7 wells from the undiluted minilipofection supernatant. The plates were washed five times with dH₂O. A goat anti-human IgG Fc-specific HRP-conjugated antibody was added at a final concentration of 1 μg/mL for 1 hour at RT for the secretion plates and binding plates detected with 1 μg/ml Rb anti Hu Fc for 1 hour at room temperature. The plates were washed five times with dH₂O. The plates were developed with the addition of TMB for 30 minutes and the ELISA was stopped by the addition of 1 M phosphoric acid. Each ELISA plate was analyzed to determine the optical density of each well at 450 nm.

The results in this text go back to patent US20050059087A1 (Amgen, published 2005).

Broadly, the Kd is the free concentration of one partner at which half of the binding sites on the other are occupied at equilibrium, for simple one-to-one binding. The koff is the first-order rate constant of dissociation. One may read the kon as the second-order rate constant of association.

No end group written: not given here.

B1: AB-EGFRvIII-XG1K-13.1.2 (antibody, V domains shown)
VH: QVQLVESGGGVVQPGRSLRLSCAASGFTFSSYGMHWVRQAPGKGLEWVAVIWYDGSNKYYVDSVKGRFTISRDNSKNTLYLQMNSLRAEDTAVYYCARDGWQQLAPFDYWGQGTLVTVSS
VL: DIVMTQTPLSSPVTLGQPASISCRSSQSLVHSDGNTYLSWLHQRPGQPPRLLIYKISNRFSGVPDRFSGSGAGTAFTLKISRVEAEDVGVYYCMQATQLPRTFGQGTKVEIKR
With B1, in test [1], the Kd came to 75 nM, the koff turned out to be 0.016 s⁻¹ and the kon was determined as 210000 M⁻¹ s⁻¹. In addition, the binding result in test [2] is “no binding (tested: 10 µg/ml)”. Also, in test [3], the “% internalization” value came out at 82.5%; the “FACS Geometric mean, With glutathione 4° C.” value was 5.38 geometric mean; the “FACS Geometric mean, With glutathione 37° C.” value stood at 19.2 geometric mean. In addition, in [4], the “FACS Geometric mean (without glutathione, 37° C.)” value stood at 22.1 geometric mean. This molecule gave a Kd in [5] of 0.025 nM. Besides, in [6], the Kd was 75 nM, the koff is 0.016 s⁻¹ and the kon came out at 210000 M⁻¹ s⁻¹. The molecule also displayed a Kd in test [7] of 67 nM.

B2: 13.1.2 variant Arg101Asp (antibody, V domains shown)
VH: QVQLVESGGGVVQPGRSLRLSCAASGFTFSSYGMHWVRQAPGKGLEWVAVIWYDGSNKYYVDSVKGRFTISRDNSKNTLYLQMNSLRAEDTAVYYCARDGWQQLAPFDYWGQGTLVTVSS
VL: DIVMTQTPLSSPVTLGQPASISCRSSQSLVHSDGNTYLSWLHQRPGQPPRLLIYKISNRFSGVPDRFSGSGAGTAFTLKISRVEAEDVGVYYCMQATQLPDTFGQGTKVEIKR
notes: Mutated chain co-transfected with the complementary wild-type chain in 293 cells; supernatant tested
Turning to B2, the binding result in test [8] is recorded as “no binding”.

B3: 13.1.2 variant Arg101Glu (antibody, V domains shown)
VH: QVQLVESGGGVVQPGRSLRLSCAASGFTFSSYGMHWVRQAPGKGLEWVAVIWYDGSNKYYVDSVKGRFTISRDNSKNTLYLQMNSLRAEDTAVYYCARDGWQQLAPFDYWGQGTLVTVSS
VL: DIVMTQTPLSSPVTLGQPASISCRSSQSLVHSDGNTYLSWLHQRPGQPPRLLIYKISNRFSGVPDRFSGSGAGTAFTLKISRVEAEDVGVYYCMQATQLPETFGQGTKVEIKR
notes: as for B2
On to B3, for which the binding result in test [8] is listed as “no binding”.

B4: 13.1.2 variant L99T-5.3 (antibody, V domains shown)
VH: QVQLVESGGGVVQPGRSLRLSCAASGFTFSSYGMHWVRQAPGKGLEWVAVIWYDGSNKYYVDSVKGRFTISRDNSKNTLYLQMNSLRAEDTAVYYCARDGWQQLAPFDYWGQGTLVTVSS
VL: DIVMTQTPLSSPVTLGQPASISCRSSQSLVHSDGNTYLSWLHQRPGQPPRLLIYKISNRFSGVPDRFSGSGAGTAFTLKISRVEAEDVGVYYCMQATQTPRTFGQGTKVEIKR
notes: also called Leu99Thr; 99Thr
In the case of B4, in test [1], the dissociation constant Kd came to 60 nM, the koff came to 0.013 s⁻¹ and the kon turned out to be 216000 M⁻¹ s⁻¹. The molecule also registered a Kd in test [9] of 54 to 70 nM.

B5: 13.1.2 variant Arg101Gln (antibody, V domains shown)
VH: QVQLVESGGGVVQPGRSLRLSCAASGFTFSSYGMHWVRQAPGKGLEWVAVIWYDGSNKYYVDSVKGRFTISRDNSKNTLYLQMNSLRAEDTAVYYCARDGWQQLAPFDYWGQGTLVTVSS
VL: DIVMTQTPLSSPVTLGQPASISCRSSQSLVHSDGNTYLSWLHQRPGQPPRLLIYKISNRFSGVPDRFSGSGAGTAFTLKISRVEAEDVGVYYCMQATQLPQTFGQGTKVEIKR
notes: as for B2
B5: the binding result in test [8] is listed as “no binding”.

B6: AB-EGFRvIII-XG1-095 (antibody, V domains shown)
VH: QVQLQESGPFLVKPSQTLSLTCTVSGGSISSGGYYWSWIRQHPGKGLEWIGFIYYRGNTYYNPSLKSRVTISVDTSKNQFSLKLSSVTAADTAVYYCARDGYCSRTGCYGGWFDPWGQGTLVTVSP
VL: DIVMTQTPLSSPVTLGQPASISCRSSQSLIHTDGNIYLSWLQQRPGQPPRLLIYKISNRFSGVPDRFSGSGAGTDFTLKISRVEAEDVGVYYCMQGTQFPITFGQGTRLEIK
notes: also called SC95; sc95
As for B6, the binding result in [10] was “binds”. Further, in [3], the “% internalization” value worked out at 72.4%; the “FACS Geometric mean, With glutathione 4° C.” value worked out at 5.13 geometric mean; the “FACS Geometric mean, With glutathione 37° C.” value came to 17.8 geometric mean. The “FACS Geometric mean (without glutathione, 37° C.)” value in test [4] was determined as 22.6 geometric mean. Further, in test [11], the Kd was 66 nM, the off-rate (koff) stood at 0.0099 s⁻¹ and the kon is 149000 M⁻¹ s⁻¹.

B7: SC-EGFRvIII-XG1-131 (antibody, V domains shown)
VH: QVQLVESGGGVVQSGRSLRLSCAASGFTFRNYGMHWVRQAPGKGLEWVAVIWYDGSDKYYADSVRGRFTISRDNSKNTLYLQMNSLRAEDTAVYYCARDGYDILTGNPRDFDYWGQGTLVTVSS
VL: DTVMTQTPLSSHVTLGQPASISCRSSQSLVHSDGNTYLSWLQQRPGQPPRLLIYRISRRFSGVPDRFSGSGAGTDFTLEISRVEAEDVGVYYCMQSTHVPWTFGQGTKVEIK
notes: also called SC131; sc131
With B7, in test [10], the binding result was “binds”. In test [12], the Kd stood at 0.05 pM.

B8: SC-EGFRvIII-XG1-139 (antibody, V domains shown)
VH: EVQVLESGGGLVQPGGSLRLSCAASGFTFSSYAMSWVRQAPGKGLEWVSAISGSGGSTNYADSVKGRFTISRDNSKNTLYLQMNSLRAEDTAVYYCAGSSGWSEYWGQGTLVTVSS
VL: DIQMTQSPSSLSASVGDRVTITCRASQGIRNNLAWYQQKPGKAPKRLIYAASNLQSGVPSRFTGSGSGTEFTLIVSSLQPEDFATYYCLQHHSYPLTSGGGTKVEIK
notes: also called SC139; sc139
As for B8, the binding result in test [10] is “binds”. Moreover, in test [3], the “% internalization” value came out at 80.8%; the “FACS Geometric mean, With glutathione 4° C.” value came to 4.88 geometric mean; the “FACS Geometric mean, With glutathione 37° C.” value stood at 19.2 geometric mean. In test [4], the “FACS Geometric mean (without glutathione, 37° C.)” value was 22.6 geometric mean. In addition, in test [11], the affinity, expressed as Kd, was 290 nM; the koff is 0.00298 s⁻¹; the association rate constant (kon) stood at 10300 M⁻¹ s⁻¹. Also, the “staining relative to ABX-EGF (E7.6.3)” value in [13] stood at 10%. Also, the “Titer, antigen binding” value in [14] is over 64 reciprocal dilution.
